Results reported in US20040258687A1.

Target: guanylyl cyclase C (GC-C), as expressed on T84 human colon carcinoma cells (human) (UniProt P25092)
Experiment: cell-based or functional assay

Chain of guanylyl cyclase C (GC-C), as expressed on T84 human colon carcinoma cells (human) (P25092 24-1073): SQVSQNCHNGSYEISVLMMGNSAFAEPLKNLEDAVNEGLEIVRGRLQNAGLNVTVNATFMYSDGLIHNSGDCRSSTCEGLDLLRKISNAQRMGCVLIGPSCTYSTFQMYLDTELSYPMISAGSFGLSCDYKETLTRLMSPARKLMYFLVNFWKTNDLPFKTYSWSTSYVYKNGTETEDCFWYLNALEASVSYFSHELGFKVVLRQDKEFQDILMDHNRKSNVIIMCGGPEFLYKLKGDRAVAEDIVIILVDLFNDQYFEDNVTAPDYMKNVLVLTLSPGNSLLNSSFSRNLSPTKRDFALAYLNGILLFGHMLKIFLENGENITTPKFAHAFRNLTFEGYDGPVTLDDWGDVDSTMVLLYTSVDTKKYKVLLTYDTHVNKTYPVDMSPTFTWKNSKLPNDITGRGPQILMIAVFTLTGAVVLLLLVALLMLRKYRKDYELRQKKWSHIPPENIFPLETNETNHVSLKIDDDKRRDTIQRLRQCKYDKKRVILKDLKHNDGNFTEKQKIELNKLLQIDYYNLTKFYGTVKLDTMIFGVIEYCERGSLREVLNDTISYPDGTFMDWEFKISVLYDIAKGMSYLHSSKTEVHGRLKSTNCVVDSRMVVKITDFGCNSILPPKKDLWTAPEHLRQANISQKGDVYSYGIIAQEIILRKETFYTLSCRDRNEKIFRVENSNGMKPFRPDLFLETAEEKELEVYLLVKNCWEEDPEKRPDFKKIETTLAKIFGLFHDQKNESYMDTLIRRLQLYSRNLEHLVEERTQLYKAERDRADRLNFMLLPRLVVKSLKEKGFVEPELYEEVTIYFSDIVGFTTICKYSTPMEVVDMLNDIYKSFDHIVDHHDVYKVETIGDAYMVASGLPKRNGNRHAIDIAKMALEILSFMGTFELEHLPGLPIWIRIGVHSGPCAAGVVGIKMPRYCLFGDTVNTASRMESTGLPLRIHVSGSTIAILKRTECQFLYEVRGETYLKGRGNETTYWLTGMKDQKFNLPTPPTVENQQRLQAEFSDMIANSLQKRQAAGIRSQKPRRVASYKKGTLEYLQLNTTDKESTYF

In the case of “E. coli heat-stable enterotoxin (ST) (peptide)”, the EC50 for ST (cytostatic effect, in vitro TJU experiments) is reported as 10 nM.
